According to article PMC6375650 (PLoS Biology, 2019):
Values joined by “and” are separate entries in the source; they are usually repeats but may differ in a detail not shown here. Identical values can stand only once.

Experiments:
Test in all cases: cryo-EM structure
Settings in all cases: both partners purified
[1] = biological target: T1, cleaved H7 Sh2 HA (HA1/HA2), A/Shanghai/2/2013, ectodomain trimer (influenza A virus (A/Shanghai/2/2013))
T1 construct: copies: 3 + 3

[2] = biological target: T2, cleaved H7 NL HA (HA1/HA2), A/Netherlands/219/2003, ectodomain trimer (influenza A virus …, UniProt Q6VMK1)
T2 construct: copies: 3 + 3

[3] = biological target: uncleaved H7 NY HA (HA0), A/New York/107/2003, ectodomain trimer (influenza A virus (A/New York/107/2003))

B1: H7.5 Fab (papain digest of H7.5 IgG) (Fab, V domains shown)
VH: QVQLVQSGAEVKKPGASVKVSCKASGYTLTRYYFHWVRQAPGQGFEWMGIINPNGGGTSYAQKFGDRVIMTSDMSTSTIYMELSSLRSEDTAVYYCARDMPYYHDSGGPLFDLWGQGTLVTVSS
VL: EIVMTQSPSSLSASVGDRVTITCRPSQSISTFLNWYEQKPGKAPKLLIYDASSLQSGVPSRFSGSGSGTEFTLTISSLQPEDFATYYCQQSFSTPYTFGQGTRLEIK
[1]
  stoichiometry N: 3 Fabs per trimer
[2]
  stoichiometry N: 3 Fabs per trimer and 2 Fabs per trimer
[3]
  stoichiometry N: 3 Fabs per trimer
